Data: article PMC10851439 (Biochemistry, 2024)
Where two headings read alike, the source gives them in different places.

Assays:
[1] = at the concentrations used for affinity experiments; cited from earlier work
NTHi SapA [2] = target: T1, NTHi SapA (Haemophilus influenzae, UniProt Q4QL73); assay: SPR single-cycle kinetics, SapA over immobilized AMPs; format: binding, nontypeable Haemophilus influenzae; conditions: LL-37 immobilized on SPR sensor chip, five increasing SapA concentrations
T1 sequence (Q4QL73 32-546): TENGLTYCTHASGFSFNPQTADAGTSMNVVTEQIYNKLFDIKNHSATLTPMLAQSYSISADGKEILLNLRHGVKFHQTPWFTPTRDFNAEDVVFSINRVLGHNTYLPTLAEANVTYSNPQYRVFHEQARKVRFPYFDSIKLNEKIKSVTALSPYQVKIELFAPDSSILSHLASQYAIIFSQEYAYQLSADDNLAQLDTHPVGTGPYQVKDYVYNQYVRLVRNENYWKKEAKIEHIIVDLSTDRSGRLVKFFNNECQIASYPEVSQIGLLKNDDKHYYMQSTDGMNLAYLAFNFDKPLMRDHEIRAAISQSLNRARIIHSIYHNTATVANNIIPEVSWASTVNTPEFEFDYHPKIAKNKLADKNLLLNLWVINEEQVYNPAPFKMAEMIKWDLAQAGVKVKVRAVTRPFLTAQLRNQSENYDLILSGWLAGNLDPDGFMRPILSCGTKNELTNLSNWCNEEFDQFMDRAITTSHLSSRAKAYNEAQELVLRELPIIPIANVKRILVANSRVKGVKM

[3] = Dynamic light scattering of LL-37; format: physicochemical; conditions: LL-37 at 1 mg/mL; data not shown
[4] = test system: NTHi strain 86–028NP (parent strain); assay: Bactericidal assay, parental strain; format: cell-based, nontypeable Haemophilus influenzae; conditions: 10 μg/mL AMP, 1 h
[5] = test system: NTHi 86–028NP ΔsapA mutant; assay: Bactericidal assay, ΔsapA mutant; format: cell-based, nontypeable Haemophilus influenzae; conditions: 10 μg/mL AMP, 1 h
NTHi SapA [6] = target: T1, NTHi SapA; assay: Spectral shift assay with fluorescently labeled SapA; format: binding, nontypeable Haemophilus influenzae; conditions: peptide up to 100 or 500 μM, triplicate
[7] = target: hNP-1_(loop) peptide (C2–C4 loop region of hNP-1 with C-terminal linker) (human); assay: SPR
[8] = target: hBD-3_(loop) peptide (C2–C4 loop region of hBD-3 with C-terminal linker) (human); assay: SPR
[9] = target: hBD-2_(loop) peptide (C2–C4 loop region of hBD-2 with C-terminal linker) (human); assay: SPR
[10] = target: human β-defensin 2 (hBD-2) (human) (UniProt O15263); assay: SPR
Sequence of human β-defensin 2 (hBD-2) (human) (O15263 24-64): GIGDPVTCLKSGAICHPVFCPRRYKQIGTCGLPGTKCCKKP

[11] = target: human α-defensin 1 (hNP-1) (human); assay: SPR
[12] = target: hNP-1_(loop) peptide (C2–C4 loop region of hNP-1 with C-terminal linker) (human); assay: SPR; remark: listed apart in the source
[13] = target: hBD-3_(loop) peptide (C2–C4 loop region of hBD-3 with C-terminal linker) (human); assay: SPR; remark: listed apart in the source
[14] = target: human β-defensin 3 (hBD-3) (human) (UniProt P81534); assay: SPR
Sequence of human β-defensin 3 (hBD-3) (human) (P81534 23-67): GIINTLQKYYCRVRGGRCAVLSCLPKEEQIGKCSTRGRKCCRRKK

[15] = target: hBD-2_(loop) peptide (C2–C4 loop region of hBD-2 with C-terminal linker) (human); assay: SPR; remark: listed apart in the source
[16] = cited from earlier work

Substance: LL-37: alpha helical peptide, the only member of the cathelicidin family found in humans
- oligomeric state in solution [1]: higher order oligomers
- SapA binding to LL-37 (SPR), result in words (NTHi SapA [2]): low affinity
- aggregation by dynamic light scattering [3]: aggregated at high concentrations
- survival of the parent strain at 10 μg/mL [4]: neither the parent strain nor the ΔsapA mutant survived
- survival of the ΔsapA mutant at 10 μg/mL [5]: neither the parent strain nor the ΔsapA mutant survived
- affinity to labeled SapA, result in words (NTHi SapA [6]): low affinity

Substance: NTHi SapA (residues 32–546), wild type (from UniProt Q4QL73 32-546) (natural protein)
- Kd [7]: 3.8 nM
- ka1 (two-state model, first step) [7]: 880000 M⁻¹ s⁻¹
- ka2 (two-state model, second step) [7]: 0.0064 s⁻¹
- kd2 (two-state model, second step) [7]: 0.00045 s⁻¹
- ka1 (two-state model, first step) [8]: 280000 M⁻¹ s⁻¹
- ka2 (two-state model, second step) [8]: 0.012 s⁻¹
- kd1 (two-state model, first step) [8]: 0.028 s⁻¹
- kd2 (two-state model, second step) [8]: 0.00012 s⁻¹
- ka1 (two-state model, first step) [9]: 760000 M⁻¹ s⁻¹
- ka2 (two-state model, second step) [9]: 0.0095 s⁻¹
- kd1 (two-state model, first step) [9]: 0.034 s⁻¹
- kd2 (two-state model, second step) [9]: 0.00024 s⁻¹
- Kd [10]: 17.5 nM
- ka1 (two-state model, first step) [10]: 630000 M⁻¹ s⁻¹
- ka2 (two-state model, second step) [10]: 0.013 s⁻¹
- kd1 (two-state model, first step) [10]: 0.047 s⁻¹
- kd2 (two-state model, second step) [10]: 0.0026 s⁻¹
- Kd [11]: 4 nM
- ka1 (two-state model, first step) [11]: 360000 M⁻¹ s⁻¹
- ka2 (two-state model, second step) [11]: 0.0061 s⁻¹
- kd1 (two-state model, first step) [11]: 0.012 s⁻¹
- kd2 (two-state model, second step) [11]: 0.00069 s⁻¹
- Kd [12]: 17.1 nM
- ka2 (two-state model, second step) [12]: 0.0026 s⁻¹
- kd1 (two-state model, first step) [12]: 0.023 s⁻¹
- kd2 (two-state model, second step) [12]: 0.0019 s⁻¹
- Kd [13]: 17.2 nM
- ka2 (two-state model, second step) [13]: 0.004 s⁻¹
- kd1 (two-state model, first step) [13]: 0.033 s⁻¹
- kd2 (two-state model, second step) [13]: 0.003 s⁻¹
- Kd [14]: 10.5 nM
- ka1 (two-state model, first step) [14]: 710000 M⁻¹ s⁻¹
- ka2 (two-state model, second step) [14]: 0.0059 s⁻¹
- kd1 (two-state model, first step) [14]: 0.019 s⁻¹
- kd2 (two-state model, second step) [14]: 0.0022 s⁻¹
- Kd [15]: 9.5 nM
- ka1 (two-state model, first step) [15]: 750000 M⁻¹ s⁻¹
- ka2 (two-state model, second step) [15]: 0.0024 s⁻¹
- kd1 (two-state model, first step) [15]: 0.019 s⁻¹
- kd2 (two-state model, second step) [15]: 0.0014 s⁻¹

Substance: PR-39
- net charge [16]: +10

Substance: PSSEQ [hBD-3PSSEQ]
- affinity to labeled SapA, result in words (NTHi SapA [6]): completely abolished affinity

Substance: SSYGT [hNP-1SSYGT]
- affinity to labeled SapA, result in words (NTHi SapA [6]): completely abolished affinity

Substance: SSYKQ [hBD-2SSYKQ]
- affinity to labeled SapA, result in words (NTHi SapA [6]): completely abolished affinity

Substance: protamine
- net charge [16]: +21
